Experimental data published in patent publication US20250302875A1 (AVENCELL EUROPE, published 2025).

Key:
[1] = target: T1, soluble recombinant IL13Rα2 ectodomain (human, UniProt Q14627 27-343); experiment: SPR, Biacore X100, 1:1 binding model
T1 construct: extracellular domain
T1 sequence (looked up): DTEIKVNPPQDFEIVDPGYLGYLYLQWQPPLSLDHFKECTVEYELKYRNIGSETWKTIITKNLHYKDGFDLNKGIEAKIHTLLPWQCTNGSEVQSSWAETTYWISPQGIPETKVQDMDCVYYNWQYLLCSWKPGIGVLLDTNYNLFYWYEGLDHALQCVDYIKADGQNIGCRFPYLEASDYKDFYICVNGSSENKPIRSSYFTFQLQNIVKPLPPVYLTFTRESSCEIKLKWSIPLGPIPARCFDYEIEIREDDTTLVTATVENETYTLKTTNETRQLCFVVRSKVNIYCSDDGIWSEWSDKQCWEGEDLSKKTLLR
Description: Data obtained by surface plasmon resonance were fitted with a “1:1 binding” model using the Biacore X100 Evaluation Software (V2.0.1). The following parameters were calculated from this model: association rate (kₐ), dissociation rate (kd) and the dissociation constant at equilibrium (KD).

[2] = target: T2, IL13Rα2 on cells (recombinant K562-IL13Rα2 cell line, U251-MG cells, PC3 cells) (human, UniProt Q14627 27-380); experiment: flow cytometry cellular binding assay on recombinant K562-IL13Rα2 cells, two-step immunostaining (anti-His-tag-PE), absolute MFI against TM concentration, four-parameter fit
T2 construct: whole, on cells; not repeated for the recombinant cell line; also called Interleukin-13 receptor subunit alpha-2
T2 sequence (looked up): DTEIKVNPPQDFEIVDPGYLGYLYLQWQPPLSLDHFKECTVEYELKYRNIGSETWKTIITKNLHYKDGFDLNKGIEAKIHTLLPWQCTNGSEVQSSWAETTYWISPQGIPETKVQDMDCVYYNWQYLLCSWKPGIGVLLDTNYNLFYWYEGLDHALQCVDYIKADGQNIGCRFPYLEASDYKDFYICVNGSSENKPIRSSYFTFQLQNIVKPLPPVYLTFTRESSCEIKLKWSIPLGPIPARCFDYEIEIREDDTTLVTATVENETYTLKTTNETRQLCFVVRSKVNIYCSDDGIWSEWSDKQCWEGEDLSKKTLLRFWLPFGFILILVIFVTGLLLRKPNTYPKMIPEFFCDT
Description: (§1) Cellular binding of IL13-based targeting modules (TM) was tested on recombinant K562-IL13Rα2 cell line (FIG. 2A), recombinant K562-IL13Rα1 cell line (FIG. 2B) and U251-MG cells (FIG. 2C) (derived from a malignant glioblastoma tumor by explant technique). The affinity of TMs was analyzed by FACS in a two-step immunostaining. The TMs were titrated on an AML cell line with recombinant overexpression of IL13Rα2 or IL13Rα1 or U251-MG cells, respectively, and then detected by a mouse anti-His-tag antibody conjugated to phycoerythrin. A dose-response curve was obtained when the geometric mean fluorescence (MFI) was plotted against the TM concentration.
(§2) The data for the cellular binding of IL13-based TMs on the IL13Rα2-expressing AML cell line and U251-MG cells were fitted using a four-parameter model with a variable slope for sigmoidal curves.

[3] = target: T3, IL13Rα1 on recombinant K562-IL13Rα1 cell line (UniProt P78552 22-427); experiment: flow cytometry cellular binding assay on recombinant K562-IL13Rα1 cells, two-step immunostaining (anti-His-tag-PE), absolute MFI against TM concentration
T3 construct: whole, on cells
T3 sequence (looked up): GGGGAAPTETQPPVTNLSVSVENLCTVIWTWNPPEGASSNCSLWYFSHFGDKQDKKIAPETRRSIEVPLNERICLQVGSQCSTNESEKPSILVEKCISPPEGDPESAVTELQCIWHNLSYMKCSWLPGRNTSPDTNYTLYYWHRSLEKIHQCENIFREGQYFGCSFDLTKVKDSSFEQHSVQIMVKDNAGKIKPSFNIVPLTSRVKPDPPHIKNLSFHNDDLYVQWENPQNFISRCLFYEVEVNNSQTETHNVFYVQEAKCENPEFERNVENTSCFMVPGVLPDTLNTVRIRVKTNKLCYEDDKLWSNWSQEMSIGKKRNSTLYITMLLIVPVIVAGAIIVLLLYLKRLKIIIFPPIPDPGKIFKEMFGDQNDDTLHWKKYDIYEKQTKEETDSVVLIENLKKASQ
Description: as §1

[4] = target: T2, IL13Rα2 on cells (recombinant …); experiment: flow cytometry cellular binding assay on U251-MG cells, two-step immunostaining (anti-His-tag-PE), absolute MFI against TM concentration, four-parameter fit
Description: as §1, §2

[5] = target: T2, IL13Rα2 on cells (recombinant …); experiment: cell-based or functional assay
[6] = target: T1, soluble recombinant IL13Rα2 ectodomain; experiment: SPR, Biacore X100, two-state reaction model, Ka1
Description: (§3) Data obtained by surface plasmon resonance were fitted with a “two-state reaction” model using the Biacore X100 Evaluation Software (V2.0.1). The following parameters were calculated from this model: association rate (kₐ), dissociation rate (kd) and the dissociation constant at equilibrium (KD).

[7] = target: T1, soluble recombinant IL13Rα2 ectodomain; experiment: SPR, Biacore X100, two-state reaction model
Description: as §3

[8] = target: T2, IL13Rα2 on cells (recombinant …); experiment: flow cytometry cellular binding, U251-MG cells, mean
Description: (§4) The data were fitted using a four-parameter model with a variable slope for sigmoidal curves. The EC50 value obtained from this model can be interpreted as a representative value of the TM affinity for the cells overexpressing the target receptor.
The mean values were calculated from the results obtained from two independent experiments with three technical replicates each (see Tab. 1).

[9] = target: T2, IL13Rα2 on cells (recombinant …); experiment: cell-based or functional assay; remark: listed apart in the source
[10] = target: T3, IL13Rα1 on recombinant K562-IL13Rα1 …; experiment: flow cytometry cellular binding assay on recombinant K562-IL13Rα1 cells, two-step immunostaining, MFI against TM concentration
Description: as §1, §4

[11] = target: T1, soluble recombinant IL13Rα2 ectodomain; experiment: SPR, Biacore X100, two-state reaction model, Kd1
Description: as §3

[12] = target: T2, IL13Rα2 on cells (recombinant …); experiment: flow cytometry, two-step immunostaining, K562-IL13Rα2 cells
Description: as §1, §4

[13] = target: T2, IL13Rα2 on cells (recombinant …); experiment: flow cytometry, two-step immunostaining, PC3 cells

Kd [1] [nM]	koff [1] [s⁻¹]	kon [1] [M⁻¹ s⁻¹]	EC50 [2] [nM]	binding result [3]	EC50 [4] [nM]	EC50 of lysis of K562-IL13Rα2 cells by switchable CAR T cells [5] [nM]	EC50 of lysis of PC3 cells by switchable CAR T cells [5] [nM]	kon [6] [M⁻¹ s⁻¹]	Kd [7] [nM]	EC50 [8] [nM]	EC50 (M), mean, lysis of U251-MG cells by UniCAR T cells [9] [M]	binding result [10]	koff [11] [s⁻¹]	EC50 [12] [nM]	EC50 [13] [nM]	Binder
30	0.00049	26000	26													TM-IL13-E11Y-G30Y (ligand, not shown: small tags and cut ends) chain (part 1 of 2): GPVPPSTALRYLIEELVNITQNQKAPLCNYSMVWSINLTAGMYCAALESLINVSGCSAIEKTQRMLSGFCPHKVSAGQFSSLHVRDTKIEVAQFVKDLLLHLKKLFREGRFN chain (part 2 of 2): KPLPEVTDEYHHHHHHHH
21	0.00073	35000	14.1	no binding (tested: about 5x10^-6 M)	1.08											TM-IL13-E11Y-M32A (ligand, not shown: small tags and cut ends) chain (part 1 of 2): GPVPPSTALRYLIEELVNITQNQKAPLCNGSAVWSINLTAGMYCAALESLINVSGCSAIEKTQRMLSGFCPHKVSAGQFSSLHVRDTKIEVAQFVKDLLLHLKKLFREGRFN chain (part 2 of 2): KPLPEVTDEYHHHHHHHH
						0.0068	0.048	871000	1.39	2.5	2.8e-11	no binding (tested: 1x10^-6 M)	0.0024	1.68	1	TM-mu33A1-scFv (scFv, also called TM based on the parental murine clone 33A1; mu33A1-based TM) scFv: EFQVQLQQPGAELVKPGASVKLSCKASGYTFTSHWIHWVKERPGRGLEWIGRIEPNSGGTLYNEKFKTKATLTVDKPSSTAYMQINSLTSEDFAVYYCARWREFDFFDYWGQGTTLTVSSGGGGSGGGGSGGGGSDIVLTQSPATLSVTPGDSVSLSCRASQSISNNLHWYQQKSHESPRLLIKYASQSISGIPSRFSGSGSGTDFTLSISSVETEDFGMYFCQQSNRWPYTFGGGTKLEIKAAAKPLPEVTDEYARGGPGGGGSHHHHHHHH
